B1: SLC35F2 (parent)
chain: SFMPLVIKVTSATSVNLGILTADL

Variants of: B1
Assay: protein stability index of a GFP-peptide fusion (GPS, HEK-293T) (PSI 1-6); higher = more stable
Details: c terminus: a fixed tail appended
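Note: lentivirally expressed fusions sorted by FACS into six bins by GFP to DsRed ratio, PSI derived from sequencing read proportions per bin multiplied by bin number.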

Protein stability index: each site, then its substitutions
I19: H 2.39; C 2.99; V 2.77; N 2.86; Y 2.38; S 2.69; D 1.97; R 2.08
L17: S 2.85; F 2.72; K 3.17; P 2.74; R 2.5; C 3.14; W 3.32; T 2.56; N 2.99; V 2.44; G 2.9
A12: F 2.25; D 2.82; E 3.09; I 2.85; Q 2.82; N 2.58; H 2.37
V6: D 2.09; F 2.02; P 2.06; L 2.32; A 2.02; I 2.65; N 2.29; R 2.43; W 4.41; S 2; Y 3.21
D23: G 3.96; E 4.12; I 3.05; P 2.65; C 2.29; L 3.79
T13: E 2.6; C 3.16; F 2.53; I 3.67; K 2.16; P 3.09; A 3.02; V 2.43; Q 2.25; L 2.94
V15: H 2.88; G 2.91; A 3.38; M 3.77; C 2.21; F 3.58; W 4.14; Y 2.21; L 3.01
I7: F 3.03; S 1.89; E 1.49; G 2.17; A 2.13; T 2.19; M 2.87; L 3.42; K 1.76; C 2.11; P 1.88
L5: E 1.51; N 2.24; R 1.65; K 1.88; P 2.55; I 2.1; A 3.18; H 2.28; Q 2.19; D 1.88; T 3.25
K8: D 2.75; C 3.64; P 2.19; G 2.94; A 2.83; W 2.13; I 3.97; H 2.59; Y 3.43; M 2.42
V9: Y 3.58; G 2.17; K 1.48; F 3.51; T 1.46; D 1.78; N 2.39; L 4.15; W 2.28
M3: Q 2.13; R 1.58; I 2.15; N 3.15; D 2.11; W 4.7; C 1.59; K 2.4; P 3.32
T10: M 2.46; R 2.69; W 3.57; K 2.12; F 3.67; E 2.98; H 3.25; Y 2.64; C 2.93; Q 3.38
S1: F 3.08; W 3.82; T 3.15; C 3.77; L 3.05; H 2.96; G 2.77; N 3.55; M 2.14; Y 3.38
T21: K 2.52; H 4.75; Q 2.79; E 2.86; A 2.49; N 1.87; M 2.77; P 2.5; S 3.64; V 2.54; W 2.7; L 2.33
G18: R 3.18; P 2.47; K 2.9; T 3.29; H 3.1; F 3.03; E 2.91; I 3.72; C 3.82; L 3.54
A22: M 3.85; S 2.88; K 2.21; I 4; R 2.35; W 3.55; G 3.15; Q 2.86; F 2.92; E 2.99; C 4.09; L 2.58; P 3.07

— the supplement of paper PMC10567573
